# Reference: paper PMC12408800
# Target: KhpB from Thermus thermophilus (Thermus thermophilus HB8)
# Test: SEC
substance,measurement,value
KhpB from Thermus thermophilus (natural protein),stoichiometry N,2
